Values quoted from earlier work as cited in patent publication US20130079279A1, “PHARMACEUTICAL COMPOSITION COMPRISING AVE0010 AND INSULIN GLARGINE” (SANOFI-AVENTIS DEUTSCHLAND GMBH, priority 2010, published 2013).

System: anti-lixisenatide antibodies
Conditions: previous study ACT6011; end of a two week period after repeated injections

## desPro^36Exendin-4(1-39)-Lys6-NH2 [lixisenatide]
  Anti-lixisenatide antibodies: not detected
